Article PMC8835725, “Cryo‐EM structure of the full‐length Lon protease from Thermus thermophilus” (Febs Letters, 2021)
Values joined by “and” are separate entries in the source; they are usually repeats but may differ in a detail not shown here. Equal values may be shown once.

Key:
[1] = molecular target: the molecule itself; test: SEC + other: negative staining electron microscopy; Superose 6 Increase 10/300 GL in buffer A (50 mM Tris/HCl, 200 mM NaCl, pH 8.0); oligomer size by column calibration, verified by negative staining EM
[2] = molecular target: the molecule itself; test: electron microscopy on grids; purified EcLon on EM grids

Protein | stoichiometry N [1] | stoichiometry N [2]
Lon protease from Thermus thermophilus (enzyme, UniProt Q72KS4 1-795, looked up, Lon protease, Thermus thermophilus, UniProt Q72KS4, full length, untagged and unmodified after SUMO cleavage; Homo-hexamer; cryo-EM sample in buffer A with 1 mM AMP-PNP and 5 mM MgCl2; also called TtLon; Lon from T. thermophilus; source: E. coli C41(DE3), purified (Ni-NTA, SUMO tag cleaved with SENP protease, Superose 6 Increase SEC); not shown: His6, N-terminal, cleaved; SUMO, N-terminal, cleaved) MKDFLRLELPVLPLRNTVVLPHTTTGVDVGRLKSKRAVEEALSADRLLFLVTQKDPEVDDPAPEDLYAVGTLAVVKQAMRLPDGTLQVMVEARSRARLLSYVAAPYLRAVGEAIPEPPLKDPELARVLVNEVQEAFERYLQNHKTLRLDRYQQEAVKSTRDPAILADLVAHHATWTLEEKQTILETPEVEERLKRVLALLLRDLERFELDKKIAARVKEQMDQNQREYYLREQMKAIQKELGGGEDFLTEIEELRERIEKKGMPEPVKEKALKELKRLERMQPGSPEATVSRTYLDWLLEVPWTEADPEVLDISVTKRVLDEDHYGLKEVKERILEYLAVRQLTQGKEVKGHAPILCFVGPPGVGKTSLGKSIARSMNRRFHRISLGGVRDEAEIRGHRRTYIGALPGKIIQGMKQVGVVNPVFLLDEIDKLSSDWRGDPAAALLEVLDPEQNHTFTDHYLDVPYDLSKVFFITTANTLSTIPRPLLDRMEVIEIPGYTLHEKRAIARYFRWPFQVKEAGLEGRLEITDRAIERIVQEYTREAGVRNLDRELSKVARKAAKDYLEKPWEGVRVVDAEDLEAYLGVPKYRPDRAEKEPQVGAAQGLAWTPYGGTLLTIEAVAVPGTGKVNLTGNLGEVMKESAHAALTYLRAHREEWGLPEGFHKDYDLHIHVPEGATPKDGPSAGITIATALASALTGRPVRMDIAMTGEITLRGRVLPIGGVKEKLLAAHQAGIHRVILPKENAAELKEVPEEILKDLEIHFVEEVGEVLKLLLLPPPPPPAVQPDRPQPGVGA | 6 | 
N-terminally truncated mutant EcLon^253-784 (domain or fragment, Escherichia coli, UniProt P0A9M0 253-784, looked up, Lon protease, Escherichia coli, UniProt P0A9M0, residues 253-784 (lacks the NTD and the collar); Tags and their cleavage follow from 'produced as described for full-length EcLon'; also called EcLon truncation including residues 253 to 784; source: E. coli C41(DE3), purified, produced as described for full-length EcLon; not shown: His6, N-terminal, cleaved; SUMO, N-terminal, cleaved) ALKRKIDAAKMPKEAKEKAEAELQKLKMMSPMSAEATVVRGYIDWMVQVPWNARSKVKKDLRQAQEILDTDHYGLERVKDRILEYLAVQSRVNKIKGPILCLVGPPGVGKTSLGQSIAKATGRKYVRMALGGVRDEAEIRGHRRTYIGSMPGKLIQKMAKVGVKNPLFLLDEIDKMSSDMRGDPASALLEVLDPEQNVAFSDHYLEVDYDLSDVMFVATSNSMNIPAPLLDRMEVIRLSGYTEDEKLNIAKRHLLPKQIERNALKKGELTVDDSAIIGIIRYYTREAGVRGLEREISKLCRKAVKQLLLDKSLKHIEINGDNLHDYLGVQRFDYGRADNENRVGQVTGLAWTEVGGDLLTIETACVPGKGKLTYTGSLGEVMQESIQAALTVVRARAEKLGINPDFYEKRDIHVHVPEGATPKDGPSAGIAMCTALVSCLTGNPVRADVAMTGEITLRGQVLPIGGLKEKLLAAHRGGIKTVLIPFENKRDLEEIPDNVIADLDIHPVKRIEEVLTLALQNEPSGMQVVTAK | 6 | 
Lon protease from Escherichia coli, full length (enzyme, UniProt P0A9M0 1-784, looked up, Lon protease, Escherichia coli, UniProt P0A9M0, full length, untagged after SUMO cleavage; Seen as a mixture of hexamers and dodecamers on EM grids; also called EcLon; EcLon^FL; source: E. coli C41(DE3), purified (Ni-NTA, SUMO tag cleaved with SENP protease, Superose 6 Increase SEC); not shown: His6, N-terminal, cleaved; SUMO, N-terminal, cleaved) MNPERSERIEIPVLPLRDVVVYPHMVIPLFVGREKSIRCLEAAMDHDKKIMLVAQKEASTDEPGVNDLFTVGTVASILQMLKLPDGTVKVLVEGLQRARISALSDNGEHFSAKAEYLESPTIDEREQEVLVRTAISQFEGYIKLNKKIPPEVLTSLNSIDDPARLADTIAAHMPLKLADKQSVLEMSDVNERLEYLMAMMESEIDLLQVEKRIRNRVKKQMEKSQREYYLNEQMKAIQKELGEMDDAPDENEALKRKIDAAKMPKEAKEKAEAELQKLKMMSPMSAEATVVRGYIDWMVQVPWNARSKVKKDLRQAQEILDTDHYGLERVKDRILEYLAVQSRVNKIKGPILCLVGPPGVGKTSLGQSIAKATGRKYVRMALGGVRDEAEIRGHRRTYIGSMPGKLIQKMAKVGVKNPLFLLDEIDKMSSDMRGDPASALLEVLDPEQNVAFSDHYLEVDYDLSDVMFVATSNSMNIPAPLLDRMEVIRLSGYTEDEKLNIAKRHLLPKQIERNALKKGELTVDDSAIIGIIRYYTREAGVRGLEREISKLCRKAVKQLLLDKSLKHIEINGDNLHDYLGVQRFDYGRADNENRVGQVTGLAWTEVGGDLLTIETACVPGKGKLTYTGSLGEVMQESIQAALTVVRARAEKLGINPDFYEKRDIHVHVPEGATPKDGPSAGIAMCTALVSCLTGNPVRADVAMTGEITLRGQVLPIGGLKEKLLAAHRGGIKTVLIPFENKRDLEEIPDNVIADLDIHPVKRIEEVLTLALQNEPSGMQVVTAK |  | 6 and 12
